This is an account of results in patent US20150266962A1 (Pfizer, published 2015).

Assay [1] deals with T1, recombinant human IL-13 receptor alpha 2 (hIL-13-Rα2) (human, UniProt Q14627 27-343).
T1 construct: Recombinant soluble antigen coated on ELISA plates or used in Biacore; also called rec hIL-13Rα2; rhIL-13Rα2
T1 sequence (looked up): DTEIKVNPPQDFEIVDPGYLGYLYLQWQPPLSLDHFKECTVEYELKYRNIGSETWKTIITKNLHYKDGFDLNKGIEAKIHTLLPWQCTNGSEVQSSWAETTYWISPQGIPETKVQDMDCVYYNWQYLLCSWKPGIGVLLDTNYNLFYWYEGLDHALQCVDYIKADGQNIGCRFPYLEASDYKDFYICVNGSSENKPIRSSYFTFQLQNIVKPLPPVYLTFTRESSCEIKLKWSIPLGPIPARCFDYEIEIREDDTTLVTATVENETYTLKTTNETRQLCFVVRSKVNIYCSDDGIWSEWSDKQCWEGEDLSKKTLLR
Nature of the assay: direct ELISA on coated recombinant hIL-13-Rα2. The protocol: Humanized hu08 binding to recombinant hIL-13-Rα2 was evaluated by a standard direct ELISA. Recombinant hIL-13-Rα2 was coated onto a 96-well plate. Serially diluted chimeric antibodies or humanized antibodies in combinations of heavy and light chains of versions 1.0 and 1.1 e.g. hu08 v1.0 HC/1.0 LC, hu08 v1.0 HC/v1.1 LC, hu08 v1.1 HC/v1.0 LC, and hu08 v1.1 HC/v1.1 LC, were added to the plate and incubated at room temperature for 1-2 hours. The binding was detected by HRP conjugated goat anti-human Ig Kappa.
(In general: ELISA stands for enzyme-linked immunosorbent assay.)

In assay [2] the target is T2, recombinant mouse IL-13-Rα2 (mIL-13-Rα2) (mouse, UniProt O88786 22-334, limits assumed).
T2 construct: also called murine mIL-13Rα2
T2 sequence (looked up): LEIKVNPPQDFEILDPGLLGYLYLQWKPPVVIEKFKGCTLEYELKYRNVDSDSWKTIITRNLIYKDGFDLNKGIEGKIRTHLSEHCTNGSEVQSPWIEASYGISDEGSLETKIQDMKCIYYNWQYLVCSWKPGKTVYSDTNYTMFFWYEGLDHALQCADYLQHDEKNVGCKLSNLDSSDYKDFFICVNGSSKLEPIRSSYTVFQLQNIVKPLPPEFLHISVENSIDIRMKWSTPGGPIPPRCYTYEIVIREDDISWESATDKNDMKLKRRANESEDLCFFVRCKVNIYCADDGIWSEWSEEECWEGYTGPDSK
Nature of the assay: direct ELISA on coated recombinant mIL-13-Rα2, serially diluted purified ch08. The procedure:
(§1) The binding of hu07 and hu08 to mouse IL-13-Rα2 was evaluated by direct ELISA. The identity between human and mouse IL-13-Rα2 at the amino acid level is approximately 64%. Recombinant mIL-13-Rα2 or hIL-13-Rα2 (as positive control) was coated onto a 96-well plate. Purified chimeric ch07 and ch08 were serially diluted and added to the antigen coated plate. The bound antibodies were detected by HRP conjugated goat anti-human IgGFc specific secondary antibody.

Assay [3] concerns the target T1, recombinant human IL-13 receptor alpha …. Put plainly: competition ELISA on plate-coated recombinant hIL-13-Rα2; competitor: constant amount of biotin-ch08, detected with streptavidin-HRP. The procedure: (§2) A competition ELISA was performed to examine whether ch07 and ch08 have distinct binding epitopes. Prior to the competition ELISA experiment, ch07 and ch08 were biotinylated. The EC50 of the biotinylated ch07 (biotin-ch07) and ch08 (biotin-ch08) were determined by direct standard ELISA. For the competition ELISA, recombinant hIL-13-Rα2 was coated onto 96-well plates at 50 ul of 2 μg/mL in PBS overnight at 4° C. The plates were then blocked and washed following a standard ELISA protocol. 3-fold serially diluted ch07 and ch08 (2× final concentration) were mixed with a constant amount of biotin-ch07 (FIG. 2A) or biotin-ch08 (FIG. 2B), respectively and were added to the plate and incubated for 1 hour at room temperature. The amount of biotinylated chimeric antibody bound was detected by HRP conjugated streptavidin at 1:5000 for 1 hour. […] Similar results are obtained when the same set of antibodies were used to compete with biotin-ch08 (FIG. 2B).

For assay [4] the target is unchanged. Nature of the assay: SPR Biacore, pH 7.4. The procedure: To assess the binding kinetics of the ch07 and ch08 antibodies, SPR (Surface Plasmon Resonance) experiments were conducted on a Biacore® T100 or T200 instrument using a Biacore® human Fab Capture Kit (GE Healthcare). All data was analyzed using the Biacore® T100 evaluation software version 2.0 with a 1:1 Langmuir binding model.
Kₐ, Kd and KD are shown on Table 5. […] At pH6.0, ch07 and ch08 binding affinity to hIL-13-Rα2 are in the low nM range. Dissociation rates of ch08 and ch07 are very similar. Higher KDs at pH6.0 than pH7.4 are due to a slower association rate.
(In general: SPR reads the build-up and loss of mass on a sensor chip optically.)

The target is the same in assay [5]. Nature of the assay: standard ELISA on hIL-13-Rα2 (given as ED50).
For assay [6], the target named is T2, recombinant mouse IL-13-Rα2 (mIL-13-Rα2). Nature of the assay: direct ELISA on coated recombinant mIL-13-Rα2, serially diluted purified ch07. The procedure:
as §1

In assay [7] the target is T1, recombinant human IL-13 receptor alpha …. Nature of the assay: competition ELISA on plate-coated recombinant hIL-13-Rα2; competitor: constant amount of biotin-ch07, detected with streptavidin-HRP. The procedure: as §2

B1: chimeric antibody ch08 (antibody, human IgG1, V domains shown)
VH: EVQLVESGGDLVRPGGSLQLSCAASGFTFSRNGMSWVRQTPDRRLEWVATVSSGGSYIYYADSVKGRFTISRDNARNTLYLQMSSLKSEDTAMYYCARQGTTALATRFFDVWGAGTTVTVSS
VL: DIVMTQSHKFISTSVGDRVSITCKASQDVGTAVAWYQQIPGQSPKLLIYSASYRSTGIPDRFTGSGSGTDFSFIISSVQAEDLALYYCQHHYSAPWTFGGGTTLDIK
notes: also called ch08Hc + Lc; chimeric antibody 08
Consider B1, for which the EC50 (usually the concentration that produces a half-maximal response) in assay [1] was determined as 0.152 nM. The binding result in assay [2] is reported as “no binding”. Also, the “IC50 (read off the curve)” value in assay [3] is around 6 nM.

B2: chimeric antibody ch07 (antibody, human IgG1, V domains shown)
VH: QVQLKESGPGLVAPSQSLSINCTVSGFSLTKYGVHWIRQSPGKGLEWLGVKWAGGSTDYNSALMSRLTISKDNNKSQVFLKMNSLQSDDSAMYYCARDHRDAMDYWGQGTSVTVSS
VL: QVVLTQSPAIMSASPGERVTMTCTASLSVSSTYLHWYHQKPGSSPKLWIYSTSNLASGVPARFSGSGSGTSYSLTISSMEAEDAATYYCHQYHRSPLTFGSGTKLELK
notes: also called chimeric antibody 07; biotin-ch07 (biotinylated form)
Turning to B2, the “fold slower dissociation than ch08” value in assay [4] is around 2 fold. Moreover, in assay [5], the EC50 was 0.1 nM. Moreover, the binding result in assay [6] is “no binding”. The “IC50 (read off the curve)” value in assay [7] was around 2 nM.
